Reference: patent US20250049939A1, “NOVEL FLT3 ANTIBODIES AND ANTIBODY-DRUG-CONJUGATES BASED THEREON, THERAPEUTIC METHODS AND USES THEREOF IN COMBINATION WITH TYROSINE KINASE INHIBITORS” (TUBULIS GmbH, priority 2021, published 2025)

T1: recombinant human FLT3 (Homo sapiens, UniProt P36888)
T1 construct: purchased Sino Biological 10445-H08H
T1 sequence (P36888 27-541 limits assumed): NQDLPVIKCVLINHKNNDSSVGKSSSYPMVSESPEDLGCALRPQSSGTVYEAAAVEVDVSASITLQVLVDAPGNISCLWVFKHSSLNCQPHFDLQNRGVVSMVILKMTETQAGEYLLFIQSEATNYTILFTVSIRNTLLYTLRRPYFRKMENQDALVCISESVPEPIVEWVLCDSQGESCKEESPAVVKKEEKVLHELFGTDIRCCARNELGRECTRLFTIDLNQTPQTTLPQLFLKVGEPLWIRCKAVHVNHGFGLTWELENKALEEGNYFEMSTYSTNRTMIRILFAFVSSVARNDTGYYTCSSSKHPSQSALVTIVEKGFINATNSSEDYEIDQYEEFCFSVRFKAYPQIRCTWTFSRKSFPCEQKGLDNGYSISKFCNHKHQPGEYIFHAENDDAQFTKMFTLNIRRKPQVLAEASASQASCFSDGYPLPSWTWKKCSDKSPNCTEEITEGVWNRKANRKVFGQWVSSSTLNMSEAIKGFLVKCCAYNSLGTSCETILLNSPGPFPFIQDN

T2: Ba/F3 cells expressing human wildtype FLT3 (Homo sapiens, UniProt P36888)
T2 construct: expressed in transfected cells; host or cells: Ba/F3 cells, retrovirally transduced with MSCV-IRES-YFP (pMIY) vector
T2 sequence (P36888 27-993): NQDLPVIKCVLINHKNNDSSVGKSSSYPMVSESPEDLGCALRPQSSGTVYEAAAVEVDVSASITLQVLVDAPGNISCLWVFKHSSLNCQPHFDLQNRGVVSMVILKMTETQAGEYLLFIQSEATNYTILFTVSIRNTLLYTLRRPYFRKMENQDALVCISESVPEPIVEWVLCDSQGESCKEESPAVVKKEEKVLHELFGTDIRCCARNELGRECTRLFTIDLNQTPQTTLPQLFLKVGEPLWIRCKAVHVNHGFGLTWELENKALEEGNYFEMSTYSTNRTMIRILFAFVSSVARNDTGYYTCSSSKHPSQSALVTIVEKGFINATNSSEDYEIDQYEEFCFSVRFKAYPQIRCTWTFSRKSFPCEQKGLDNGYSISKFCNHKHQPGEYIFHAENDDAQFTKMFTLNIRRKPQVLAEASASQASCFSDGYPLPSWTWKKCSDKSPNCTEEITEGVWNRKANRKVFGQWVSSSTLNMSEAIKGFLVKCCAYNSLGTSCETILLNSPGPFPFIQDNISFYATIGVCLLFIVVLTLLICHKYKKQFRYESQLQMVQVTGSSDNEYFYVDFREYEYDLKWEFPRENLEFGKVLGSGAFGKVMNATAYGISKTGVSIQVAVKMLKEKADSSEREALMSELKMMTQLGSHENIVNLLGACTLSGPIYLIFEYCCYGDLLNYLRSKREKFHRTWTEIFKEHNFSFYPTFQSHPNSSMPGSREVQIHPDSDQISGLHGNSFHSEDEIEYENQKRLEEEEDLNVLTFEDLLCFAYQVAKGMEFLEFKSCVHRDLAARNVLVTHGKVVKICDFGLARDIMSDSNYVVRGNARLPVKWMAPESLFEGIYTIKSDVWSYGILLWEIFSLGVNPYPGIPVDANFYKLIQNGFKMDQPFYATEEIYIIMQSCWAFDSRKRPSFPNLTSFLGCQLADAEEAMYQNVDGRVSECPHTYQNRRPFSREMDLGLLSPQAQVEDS


Legend:
recombinant human FLT3 = target: T1, recombinant human FLT3; test: ELISA affinity to recombinant human FLT3; format: binding; conditions: chimeric Ab clones
Source text: FIG. 1: Evaluation of epitope specificity and internalization capability of anti-FLT3 monoclonal antibodies. (A) Affinity of seven anti-FLT3 monoclonal antibody (mab) clones to recombinant human FLT3 measured in enzyme-linked immunosorbent assay (ELISA) normalized to the binding of the antibodies to BSA control. […] (B) Schematic FLT3 receptor. Black arrows indicate common mutations and blue arrows indicate the three identified epitopes of seven anti-FLT3 antibodies analyzed in linear epitope mapping by PEPperPRINT. Figure was created with BioRender.com. (C) Binding and temperature induced internalization of anti-FLT3 antibodies in Ba/F3 cells expressing human wildtype FLT3. Internalization was induced by incubation for 30 min at 37° C. (grey) compared to 4° C. (black). Remaining surface-bound antibody was detected in flow cytometry. MFI was normalized to control human IgG1 binding. MFI=mean fluorescence intensity. […] (D) Cell surface binding of 20D9 mab or control human IgG1 antibody to Ba/F3 cells stably expressing pMIY (Ba/F3-pMIY) empty vector (ev), human wildtype (hFLT3 wt) or ITD mutant human FLT3 (hFLT3ITD) was measured in flow cytometry. Mean±s.d. of n=3. (E) Temperature induced internalization of 4B12 mab in MOLM-13 (FLT3 positive) cells after 30 min incubation at 37° C. compared to 4° C. and HL-60 (FLT3 negative) after 37° C. incubation assessed in immunofluorescence staining. Red=FLT3 staining by 4B12, Green=membrane staining by Vybrant DiO, Blue=nuclear staining by DAPI. Scale bar 5 μm. Representative pictures are shown. (F) Cell surface binding of 20D9 mab or control hIgG1 antibody to Ba/F3-pMIY ev, hFLT3 wt, murine (mFLT3 wt) or cynomolgues monkey FLT3 (cynoFLT3 wt) was measured in flow cytometry. Mean±s.d. of n=3. (G) Cell surface binding of 20D9 mab or control hIgG1 antibody to Ba/F3-PMIY ev, hFLT3 wt or epitope mutant FLT3 (hFLT3/S50P/P54R) measured in flow cytometry. Mean±s.d. of n=3. (H) Cell surface binding of 20D9 mab or control hIgG1 antibody to Ba/F3-PMIY ev, hFLT3 wt or human CD64 (hCD64) measured in flow cytometry. Mean±s.d. of n=3.
Maxisorp plates were coated with human recombinant FLT3 protein (10445-H08H, Sino Biological). Chimeric (20D9) or humanized anti-FLT3 monoclonal antibodies (in house) and secondary alkaline phosphatase conjugated rabbit anti-human IgG antibody (309-055-008, Jackson Immunoresearch) were used. For detection, Attophos Fluorescent Substrate System (S1000, Promega) was applied. The fluorescence was read with excitation of 405 nm and emission at 500-550 nm. The calculation of the dissociation constant KD was performed using GraphPad Prism version 9.4.0.

[1] = target: T2, Ba/F3 cells expressing human wildtype FLT3; test: Temperature induced internalization in Ba/F3-FLT3, flow cytometry; format: cell-based; conditions: 30 min at 37° C. compared to 4° C.
Source text: FIG. 1: Evaluation of epitope specificity and internalization capability of anti-FLT3 monoclonal antibodies. (A) Affinity of seven anti-FLT3 monoclonal antibody (mab) clones to recombinant human FLT3 measured in enzyme-linked immunosorbent assay (ELISA) normalized to the binding of the antibodies to BSA control. […] (B) Schematic FLT3 receptor. Black arrows indicate common mutations and blue arrows indicate the three identified epitopes of seven anti-FLT3 antibodies analyzed in linear epitope mapping by PEPperPRINT. Figure was created with BioRender.com. (C) Binding and temperature induced internalization of anti-FLT3 antibodies in Ba/F3 cells expressing human wildtype FLT3. Internalization was induced by incubation for 30 min at 37° C. (grey) compared to 4° C. (black). Remaining surface-bound antibody was detected in flow cytometry. MFI was normalized to control human IgG1 binding. MFI=mean fluorescence intensity. […] (D) Cell surface binding of 20D9 mab or control human IgG1 antibody to Ba/F3 cells stably expressing pMIY (Ba/F3-pMIY) empty vector (ev), human wildtype (hFLT3 wt) or ITD mutant human FLT3 (hFLT3ITD) was measured in flow cytometry. Mean±s.d. of n=3. (E) Temperature induced internalization of 4B12 mab in MOLM-13 (FLT3 positive) cells after 30 min incubation at 37° C. compared to 4° C. and HL-60 (FLT3 negative) after 37° C. incubation assessed in immunofluorescence staining. Red=FLT3 staining by 4B12, Green=membrane staining by Vybrant DiO, Blue=nuclear staining by DAPI. Scale bar 5 μm. Representative pictures are shown. (F) Cell surface binding of 20D9 mab or control hIgG1 antibody to Ba/F3-pMIY ev, hFLT3 wt, murine (mFLT3 wt) or cynomolgues monkey FLT3 (cynoFLT3 wt) was measured in flow cytometry. Mean±s.d. of n=3. (G) Cell surface binding of 20D9 mab or control hIgG1 antibody to Ba/F3-PMIY ev, hFLT3 wt or epitope mutant FLT3 (hFLT3/S50P/P54R) measured in flow cytometry. Mean±s.d. of n=3. (H) Cell surface binding of 20D9 mab or control hIgG1 antibody to Ba/F3-PMIY ev, hFLT3 wt or human CD64 (hCD64) measured in flow cytometry. Mean±s.d. of n=3. […]

Row | Affinity Kd (recombinant human FLT3) | Internalization in Ba/F3-FLT3 [1] | Molecule
1 | 21.88 ng/mL | 79% | 20D9: chimeric (rat variable regions, human IgG1) anti-FLT3 monoclonal antibody; VH SEQ ID NO: 5, VL SEQ ID NO: 6 (antibody, V domains shown, Clone 20D9, heavy chain variable region without a signal seqeunce; Clone 20D9, light chain variable region without a signal seqeunce) VH: DVMLVESGGGLVQPGRSLKLSCVASGFTFNNYWMTWIRQAPGKGLEWIASITKTGGGTYYPDSVKGRFTISRDNAKSTLYLQMNSLRSEDTATYYCTTLQQLGVMDAWGQGASVTVSSA VL: DVQMTQSPSVLSASVGDRITLNCKASQNINKELNWYQQKLGEAPKLLIYNTNNLQTGIPSRFSGSGSGTDYTLTISSLQPEDVATYFCFQHKSWPLTFGSGTKLEIKR
2 | 31.91 ng/mL | 86% | 4B12: chimeric anti-FLT3 antibody from rat; VH SEQ ID NO: 9, VL SEQ ID NO: 10 (antibody, V domains shown, Clone 4B12, heavy chain variable region without a signal sequence; Clone 4B12, light chain variable region without a signal seqeunce) VH: QVQLQQSGPGLVQPSQTLSLTCTVSGFSLTSYNVNWVRQPPGKGLEWIGAMWRGGGTDYNPALKSRLSISRDTSKSQVFLKMNRLQTEDTAIYFCTRGFGDYWGQGVMVTVSSA VL: DIQMTQTPLSLSVAIGQSASISCKSSQSLKYSDGKTYLNWVFQSPGQSPKRLIYQVSKLDSGVPDRFSGTGSETDFTLKISRVEAEDLGVYYCCQGSYSPSTFGAGTKLELKR
